Source: the supplement of paper PMC9112550, “Optimization of the antimicrobial peptide Bac7 by deep mutational scanning” (BMC Biology, 2022)

System: Escherichia coli TOP10
Assay: shrunken log2 fold change of peptide-encoding DNA abundance (4.5 h post-induction vs induction); higher = less antimicrobial activity (less host growth inhibition)
Details: time post-induction: 4.5 h; library: site-saturation at positions 5, 18, 19, 20
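Note: peptides expressed intracellularly from a pBAD plasmid library in pooled LB shake-flask culture, induced with 0.3% L-arabinose, DNA abundance read by NGS, three biological replicates, DESeq2 with apeglm shrinkage.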

| Sequence | shrunken log2 fold change |
| --- | --- |
| RRIRDRPPRLPRPRPRPVSRPRP | 0.218 |
| RRIRWRPPRLPRPRPRPIPTPRP | -0.0487 |
| RRIRKRPPRLPRPRPRPKGCPRP | 0.0534 |
| RRIRSRPPRLPRPRPRPDCKPRP | -0.0745 |
| RRIRWRPPRLPRPRPRPPSNPRP | 0.133 |
| RRIRHRPPRLPRPRPRPSSTPRP | -0.741 |
| RRIRDRPPRLPRPRPRPWKYPRP | -0.331 |
| RRIRTRPPRLPRPRPRPYIAPRP | -0.476 |
| RRIRARPPRLPRPRPRPLYSPRP | -0.122 |
| RRIRWRPPRLPRPRPRPMVVPRP | 0.026 |
| RRIRARPPRLPRPRPRPEQKPRP | 1.29 |
| RRIRARPPRLPRPRPRPLYHPRP | 0.149 |
| RRIRQRPPRLPRPRPRPACWPRP | 0.401 |
| RRIRTRPPRLPRPRPRPHSGPRP | -0.166 |
| RRIRLRPPRLPRPRPRPADTPRP | -0.538 |
| RRIRCRPPRLPRPRPRPDWGPRP | -0.134 |
| RRIRYRPPRLPRPRPRPPFMPRP | -0.422 |
| RRIRTRPPRLPRPRPRPLTFPRP | -0.203 |
| RRIRARPPRLPRPRPRPSPQPRP | 0.554 |
| RRIRGRPPRLPRPRPRPHITPRP | -0.0465 |
| RRIRPRPPRLPRPRPRPSACPRP | 0.0137 |
| RRIRWRPPRLPRPRPRPRTHPRP | 0.0534 |
| RRIRFRPPRLPRPRPRPDSWPRP | -0.161 |
| RRIRLRPPRLPRPRPRPTPLPRP | 0.296 |
| RRIRFRPPRLPRPRPRPTWFPRP | 0.0971 |

| Sequence | shrunken log2 fold change |
| --- | --- |
| RRIRCRPPRLPRPRPRPRQWPRP | -0.108 |
| RRIRVRPPRLPRPRPRPCPFPRP | -0.314 |
| RRIRDRPPRLPRPRPRPIDFPRP | 0.132 |
| RRIRQRPPRLPRPRPRPQVIPRP | -0.0697 |
| RRIRQRPPRLPRPRPRPGARPRP | 0.451 |
| RRIRCRPPRLPRPRPRPYICPRP | -0.419 |
| RRIRVRPPRLPRPRPRPYFRPRP | -0.153 |
| RRIRLRPPRLPRPRPRPTRSPRP | 0.467 |
| RRIRERPPRLPRPRPRPGANPRP | 0.0574 |
| RRIRLRPPRLPRPRPRPQPWPRP | 0.319 |
| RRIRMRPPRLPRPRPRPEHWPRP | -0.00593 |
| RRIRGRPPRLPRPRPRPIAMPRP | 0.401 |
| RRIRHRPPRLPRPRPRPMCMPRP | 0.201 |
| RRIRIRPPRLPRPRPRPSTQPRP | -0.0353 |
| RRIRSRPPRLPRPRPRPENQPRP | -0.0853 |
| RRIRCRPPRLPRPRPRPFQSPRP | -0.0129 |
| RRIRKRPPRLPRPRPRPRDAPRP | 0.558 |
| RRIRVRPPRLPRPRPRPAHCPRP | 0.122 |
| RRIRERPPRLPRPRPRPHRMPRP | -0.305 |
| RRIRNRPPRLPRPRPRPAQPPRP | -0.0398 |
| RRIRVRPPRLPRPRPRPAGWPRP | 0.689 |
| RRIRTRPPRLPRPRPRPQGWPRP | 0.704 |
| RRIRCRPPRLPRPRPRPRMQPRP | 0.349 |
| RRIRNRPPRLPRPRPRPTMCPRP | -0.0233 |
| RRIRHRPPRLPRPRPRPYEWPRP | -0.0335 |

| Sequence | shrunken log2 fold change |
| --- | --- |
| RRIRTRPPRLPRPRPRPKFDPRP | -0.0528 |
| RRIRWRPPRLPRPRPRPRNAPRP | 0.0837 |
| RRIRHRPPRLPRPRPRPVHMPRP | -0.0408 |
| RRIRSRPPRLPRPRPRPHLGPRP | -0.385 |
| RRIRFRPPRLPRPRPRPTIYPRP | -0.689 |
| RRIRHRPPRLPRPRPRPGIGPRP | -0.0787 |
| RRIRYRPPRLPRPRPRPFPWPRP | -0.18 |
| RRIRTRPPRLPRPRPRPIKAPRP | -0.143 |
| RRIRQRPPRLPRPRPRPWHVPRP | -0.0656 |
| RRIRRRPPRLPRPRPRPEMAPRP | 0.145 |
| RRIRNRPPRLPRPRPRPQGRPRP | -0.0865 |
| RRIRVRPPRLPRPRPRPFPVPRP | -0.0106 |
| RRIRFRPPRLPRPRPRPLMKPRP | -1.06 |
| RRIRGRPPRLPRPRPRPMAHPRP | 0.63 |
| RRIRNRPPRLPRPRPRPQISPRP | 0.00683 |
| RRIRFRPPRLPRPRPRPWRAPRP | 0.0757 |
| RRIRLRPPRLPRPRPRPYWNPRP | -1.03 |
| RRIRRRPPRLPRPRPRPSWSPRP | -0.116 |
| RRIRFRPPRLPRPRPRPILPPRP | -0.188 |
| RRIRHRPPRLPRPRPRPPKVPRP | 0.0708 |
| RRIRWRPPRLPRPRPRPHAVPRP | 0.172 |
| RRIRFRPPRLPRPRPRPETEPRP | -0.0257 |
| RRIRDRPPRLPRPRPRPRWHPRP | 0.42 |
| RRIRFRPPRLPRPRPRPGMAPRP | -0.058 |
| RRIRGRPPRLPRPRPRPSQYPRP | -0.034 |

| Sequence | shrunken log2 fold change |
| --- | --- |
| RRIRCRPPRLPRPRPRPLCTPRP | -0.088 |
| RRIRARPPRLPRPRPRPFFDPRP | 0.107 |
| RRIRKRPPRLPRPRPRPSLLPRP | -0.0176 |
| RRIRMRPPRLPRPRPRPSMVPRP | 0.0557 |
| RRIRVRPPRLPRPRPRPTQAPRP | 0.55 |
| RRIRSRPPRLPRPRPRPNSAPRP | -0.35 |
| RRIRCRPPRLPRPRPRPHYDPRP | -0.687 |
| RRIRARPPRLPRPRPRPEREPRP | 1.05 |
| RRIRSRPPRLPRPRPRPPPIPRP | 0.572 |
| RRIRDRPPRLPRPRPRPMGMPRP | -0.069 |
| RRIRPRPPRLPRPRPRPIPNPRP | -0.353 |
| RRIRLRPPRLPRPRPRPKASPRP | -0.231 |
| RRIRPRPPRLPRPRPRPFFSPRP | -0.0993 |
| RRIRHRPPRLPRPRPRPDMAPRP | -0.0459 |
| RRIRCRPPRLPRPRPRPAIWPRP | 0.346 |
| RRIRLRPPRLPRPRPRPDLHPRP | -0.0386 |
| RRIRTRPPRLPRPRPRPIQQPRP | -0.229 |
| RRIRPRPPRLPRPRPRPHPPPRP | 0.397 |
| RRIRKRPPRLPRPRPRPEPRPRP | 0.991 |
| RRIRARPPRLPRPRPRPNDCPRP | 0.0748 |
| RRIRMRPPRLPRPRPRPQWTPRP | 0.0242 |
| RRIRSRPPRLPRPRPRPQFNPRP | -0.498 |
| RRIRQRPPRLPRPRPRPYHTPRP | -0.00448 |
| RRIRWRPPRLPRPRPRPRPFPRP | 0.56 |
| RRIRSRPPRLPRPRPRPSGDPRP | 0.118 |

| Sequence | shrunken log2 fold change |
| --- | --- |
| RRIRWRPPRLPRPRPRPLMMPRP | 0.0198 |
| RRIRVRPPRLPRPRPRPINQPRP | -0.749 |
| RRIRYRPPRLPRPRPRPEENPRP | -0.0116 |
| RRIRFRPPRLPRPRPRPNTGPRP | -0.165 |
| RRIRDRPPRLPRPRPRPRYTPRP | -0.219 |
| RRIRFRPPRLPRPRPRPTLLPRP | -0.0998 |
| RRIRNRPPRLPRPRPRPWTRPRP | -0.00821 |
| RRIRNRPPRLPRPRPRPRECPRP | 0.0263 |
| RRIRCRPPRLPRPRPRPFYPPRP | -0.511 |
| RRIRKRPPRLPRPRPRPNWEPRP | 0.0515 |
| RRIRMRPPRLPRPRPRPRHTPRP | 1.15 |
| RRIRPRPPRLPRPRPRPQCDPRP | -0.254 |
| RRIRNRPPRLPRPRPRPFNLPRP | -0.207 |
| RRIRERPPRLPRPRPRPMGVPRP | 0.22 |
| RRIRGRPPRLPRPRPRPKMNPRP | 0.407 |
| RRIRFRPPRLPRPRPRPMPQPRP | -0.0791 |
| RRIRCRPPRLPRPRPRPTEDPRP | -0.0639 |
| RRIRIRPPRLPRPRPRPNVVPRP | -0.508 |
| RRIRRRPPRLPRPRPRPTAKPRP | 0.371 |
| RRIRVRPPRLPRPRPRPTQTPRP | 0.0438 |
| RRIRQRPPRLPRPRPRPIGIPRP | -0.245 |
| RRIRYRPPRLPRPRPRPNVVPRP | -0.274 |
| RRIRQRPPRLPRPRPRPFYKPRP | -0.118 |
| RRIRWRPPRLPRPRPRPHCGPRP | -0.0645 |
| RRIRHRPPRLPRPRPRPSKTPRP | -0.24 |

| Sequence | shrunken log2 fold change |
| --- | --- |
| RRIRQRPPRLPRPRPRPVSTPRP | -0.0279 |
| RRIRTRPPRLPRPRPRPRTIPRP | 0.0752 |
| RRIRCRPPRLPRPRPRPPCYPRP | -0.265 |
| RRIRYRPPRLPRPRPRPENQPRP | -0.222 |
| RRIRFRPPRLPRPRPRPGISPRP | -0.0961 |
| RRIRYRPPRLPRPRPRPCKLPRP | -0.698 |
| RRIRARPPRLPRPRPRPFDTPRP | -0.333 |
| RRIRLRPPRLPRPRPRPWYWPRP | 0.134 |
| RRIRIRPPRLPRPRPRPALAPRP | 0.202 |
| RRIRDRPPRLPRPRPRPCTTPRP | -0.00176 |
| RRIRYRPPRLPRPRPRPDTIPRP | -0.145 |
| RRIRKRPPRLPRPRPRPPYRPRP | -0.17 |
| RRIRPRPPRLPRPRPRPNKEPRP | -0.406 |
| RRIRFRPPRLPRPRPRPYRHPRP | -1.08 |
| RRIRGRPPRLPRPRPRPALAPRP | 1.17 |
| RRIRIRPPRLPRPRPRPTDFPRP | -0.109 |
| RRIRCRPPRLPRPRPRPWIWPRP | -0.128 |
| RRIRYRPPRLPRPRPRPTHKPRP | -0.329 |
| RRIRPRPPRLPRPRPRPWQEPRP | 0.00579 |
| RRIRQRPPRLPRPRPRPPHMPRP | 0.287 |
| RRIRVRPPRLPRPRPRPYCAPRP | -0.229 |
| RRIRARPPRLPRPRPRPGEFPRP | 0.388 |
| RRIRHRPPRLPRPRPRPYQTPRP | -0.112 |
| RRIRDRPPRLPRPRPRPSIAPRP | 0.146 |
| RRIRFRPPRLPRPRPRPEGIPRP | 0.00745 |
